Measurements reported in patent publication US20090105116A1.
Each block holds one substance with its values, some of them ahead of it.

Legend:
human α-thrombin (human) [1] = biological target: human α-thrombin (human) (UniProt P00734); experiment: cell-based or functional assay
human α-thrombin (human) [2] = biological target: human α-thrombin (human) (UniProt P00734); experiment: amidolytic assay with chromogenic substrate S-2238, Lineweaver-Burk, 25° C.
[3] = biological target: P3182, Bbs-R-(D-Pip)-Gly-Glu-Gln-Lys-Leu-Ile-Ser-Glu-Glu-Asp-Leu-Gly-Asp-Phe-Glu-Glu-Ile-Pro-Glu-Glu-Tyr-Leu-Gln; experiment: cell-based or functional assay
Chain of P3182, Bbs-R-(D-Pip)-Gly-Glu-Gln-Lys-Leu-Ile-Ser-Glu-Glu-Asp-Leu-Gly-Asp-Phe-Glu-Glu-Ile-Pro-Glu-Glu-Tyr-Leu-Gln (peptide, as listed by the source, form in doubt): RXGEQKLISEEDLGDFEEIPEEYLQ

Substance: P3170, Bbs-R-(D-Pip)-Gly-(Ser-Pro-His-Tyr(P)-Glu-Lys-Val-Ser-Gly)-Asp-Phe-Glu-Glu-Ile-Pro-Glu-Glu-Tyr-Leu-Gln (peptide)
Ki (human α-thrombin (human) [2]): 1.5 nM | IC50, nM (25° C.), fibrinogen clotting assay (human α-thrombin (human) [1]): 0.7 nM

Substance: anti-c-myc antibody 9E10 (Sigma)
clotting onset time with 150 nM peptide, 0.6 nM thrombin and 1.2 µM antibody [3]: 230 s

Now from value to substance:

IC50, nM, fibrinogen clotting assay (the text says 25° C.) (human α-thrombin (human) [1]): 7 nM
Substance: P3291, Bbs-Arg-dPip-Gly-Arg-Lys-Ser-Leu-Thr-Ile-Tyr-Ala-Gln-Val-Gln-Lys-Gly-Asp-Phe-Glu-Glu-Ile-Pro-Glu-Glu-Tyr-Leu-Gln (peptide)

IC50, nM (25° C.), fibrinogen clotting assay (human α-thrombin (human) [1]): 19 nM
Substance: P3162, Bbs-R-(D-Pip)-Gly-(Ser-Pro-His-Tyr(P)-Glu-Lys-Val-Ser-Gly)2-Asp-Phe-Glu-Glu-Ile-Pro-Glu-Glu-Tyr-Leu-Gln (peptide)

IC50, nM (37° C.), fibrinogen clotting assay (human α-thrombin (human) [1]): 1.1 nM
Substance: P3172-P3165, disulfide-linked Bbs-Arg-(D-Pip)-Gly-Cys...Cys-(Gly-Ser)8-Gly-Asp-Phe-Glu-Glu-Ile-Pro-Glu-Glu-Tyr-Leu-Gln (peptide)
